# Assay results published in US20040018971A1 (published 2004).
# Where no end group is shown, it is not given here. [ ]: non-standard residue; d: D form. Abu = CC[C@H](N)C(=O)O
# Tests used:
# HLA-A*0206 [1] = target: HLA-A*0206 (human); assay: competition with 125I-labelled probe peptide for purified HLA, gel filtration
# HLA-A*6802 [2] = target: HLA-A*6802 (human); assay: as above
# HLA-A*0203 [3] = target: HLA-A*0203 (human); assay: as above
# HLA-A*0201 [4] = target: T1, HLA-A*0201 (human); assay: as above
# T1 construct: also called HLA-A2.1
# HLA-A*0202 [5] = target: HLA-A*0202 (human); assay: as above
# HLA-DR3 (DRB1*0301) = target: T2, HLA-DR3 (DRB1*0301) (human); assay: competition with 125I-labelled probe peptide on purified HLA-DR, gel filtration; IC50 of standard peptide / IC50 of test peptide
# T2 construct: Purified HLA class II molecule
# HLA-DRB1*0301 [6] = target: T3, HLA-DRB1*0301 (human); assay: competition with 125I-labeled standard peptide, purified HLA-DR, gel filtration
# T3 construct: also called DR3
# HLA-A*0301 [7] = target: T4, HLA-A*0301 (human); assay: inhibition of 125I-labelled probe peptide binding to purified HLA-A*0301, gel filtration; ratio to standard peptide 941.12 [..] (11 nM); the negative sign is not explained
# T4 construct: also called HLA-A3
# [8] = target: HLA-A*3301 (purified HLA class I molecule) (human); assay: inhibition of 125I probe peptide binding to purified HLA; ratio to standard peptide
# [9] = target: HLA-A*1101 (purified HLA class I molecule) (human); assay: as above
# [10] = target: HLA-A*3101 (purified HLA class I molecule) (human); assay: as above
# [11] = target: HLA-A*6801 (purified HLA class I molecule) (human); assay: as above
# [12] = target: T5, HLA-A*0301 (purified HLA class I molecule) (human); assay: as above
# T5 construct: also called A3
# HLA-DRB1*0401 = target: T6, HLA-DRB1*0401 (human); assay: competition with 125I probe peptide, purified HLA
# T6 construct: also called DR4w4
# HLA-A*0206 [13] = target: T7, HLA-A*0206 (human); assay: competition for purified HLA vs 125I-labelled probe peptide, gel filtration
# T7 construct: purified HLA class I molecule
# HLA-A*0203 [14] = target: T8, HLA-A*0203 (human); assay: as above
# T8 construct: purified HLA class I molecule
# HLA-A*0201 [15] = target: T9, HLA-A*0201 (human); assay: as above
# T9 construct: also called HLA-A2.1
# HLA-A*0202 [16] = target: T10, HLA-A*0202 (human); assay: as above
# T10 construct: purified HLA class I molecule
# HLA-A*6802 [17] = target: T11, HLA-A*6802 (human); assay: as above
# T11 construct: purified HLA class I molecule
# HLA-A*3101 = HLA-A*3101 (human); assay: competition with 125I-labelled standard peptide for purified HLA; gel filtration
# HLA-A*0301 [18] = target: HLA-A*0301 (human); assay: as above
# HLA-A*3301 = HLA-A*3301 (human); assay: as above
# HLA-A*6801 = HLA-A*6801 (human); assay: as above
# [19] = target: HLA-DR3 (DRB1*0301), purified HLA class II molecule (human); assay: competition with 125I-labelled probe peptide, purified HLA-DR
# HLA-DRB1*0301 [20] = target: T12, HLA-DRB1*0301 (human); assay: competition with 125I-labelled standard peptide, purified HLA-DR, gel filtration
# T12 construct: purified MHC class II molecule; also called DR3
# HLA-A*0206 [21] = target: HLA-A*0206 (human); assay: competition with 125I probe peptide for purified HLA
# HLA-A*0201 [22] = target: T13, HLA-A*0201 (human); assay: as above
# T13 construct: also called HLA-A2.1
# HLA-A*0202 [23] = target: HLA-A*0202 (human); assay: as above
# HLA-A*6802 [24] = target: HLA-A*6802 (human); assay: as above
# HLA-A*0203 [25] = target: HLA-A*0203 (human); assay: as above
# HLA-DRB1*0101 = target: T14, HLA-DRB1*0101 (human); assay: competition with 125I probe peptide, purified HLA
# T14 construct: also called DR1
binder,measurement,setting,value
YLIMVK[Abu]WMV (also called YLIMVKBWMV) [Her2/neu.952L2B7V10],IC50,HLA-A*0206 [1],11 nM
same,IC50,HLA-A*6802 [2],851 nM
same,IC50,HLA-A*0203 [3],77 nM
same,IC50,HLA-A*0201 [4],7.2 nM
same,IC50,HLA-A*0202 [5],66 nM
AIKVLRENTSPKANK (also called Her2/neu.751) [HER2/neu peptide AIKVLRENTSPKANK (position 751)],relative binding ratio,HLA-DR3 (DRB1*0301),0.0075 ratio
KGPLPTDCCHEQCAA (synthetic 15-mer; also called Her2/neu.228) [HER2/neu DR supermotif exemplary peptide KGPLPTDCCHEQCAA (position 228)],relative binding ratio,HLA-DRB1*0301 [6],-0.0027 ratio (standard IC50 / test IC50)
"PAGATLERPK (Synthetic peptide; also called Her2/neu.1162 (10-mer)) [HER2/neu peptide, position 1162, 10 amino acids]",relative binding ratio (IC50 of standard peptide / IC50 of test peptide),HLA-A*0301 [7],-0.0002
"CVARCPSGVK (also called Her2/neu.596 (10-mer)) [HER2/neu peptide, position 596, 10 amino acids]",relative binding ratio,[8],0.0064 ratio (IC50 standard / IC50 test)
same,relative binding ratio,[9],0.0042 ratio (IC50 standard / IC50 test)
same,relative binding ratio,[10],0.0008 ratio (IC50 standard / IC50 test)
same,relative binding ratio,[11],0.0093 ratio (IC50 standard / IC50 test)
same,relative binding ratio,[12],0.022 ratio (IC50 standard / IC50 test)
PSGVKPDLSYMPIWK (synthetic 15-mer; also called Her2/neu.601) [HER2/neu DR supermotif exemplary peptide PSGVKPDLSYMPIWK (position 601)],relative binding ratio,HLA-DRB1*0301 [6],-0.0027 ratio (standard IC50 / test IC50)
KEILDEAYVMAGVGS [Her2/neu.765],IC50,HLA-DRB1*0401,6160 nM
VLIQRNPQV (analog of Her2/neu.153) [Her2/neu.153.V9],IC50,HLA-A*0206 [13],385 nM
same,IC50,HLA-A*0203 [14],135 nM
same,IC50,HLA-A*0201 [15],55 nM
same,IC50,HLA-A*0202 [16],768 nM
SLISAVVGV (analog of Her2/neu.653),IC50,HLA-A*6802 [17],110 nM
same,IC50,HLA-A*0206 [13],20 nM
same,IC50,HLA-A*0203 [14],16 nM
same,IC50,HLA-A*0201 [15],7.1 nM
same,IC50,HLA-A*0202 [16],10 nM
LVKSPNHVR [Her2/neu.852.R9],IC50,HLA-A*3101,198 nM
same,IC50,HLA-A*0301 [18],7860 nM
same,IC50,HLA-A*3301,107 nM
same,IC50,HLA-A*6801,50 nM
VHTVPWDQLFRNPHQ (also called Her2/neu.477) [HER2/neu DR supermotif exemplary 15-mer VHTVPWDQLFRNPHQ (position 477)],relative binding ratio,[19],0.022 ratio (IC50 standard / IC50 test)
SLSFLQDIQEVQGYV [Her2/neu.70],IC50,HLA-DRB1*0301 [20],5770 nM
YLIMVKCWMV (analog of Her2/neu.952 (10-mer)) [Her2/neu.952.L2V10],IC50,HLA-A*6802 [17],84 nM
same,IC50,HLA-A*0206 [13],18 nM
same,IC50,HLA-A*0201 [15],13 nM
same,IC50,HLA-A*0202 [16],56 nM
"DLSYMPIWK (also called Her2/neu.607 (9-mer)) [HER2/neu peptide, position 607, 9 amino acids]",relative binding ratio,[8],0.088 ratio (IC50 standard / IC50 test)
same,relative binding ratio,[9],0.01 ratio (IC50 standard / IC50 test)
same,relative binding ratio,[10],0.0002 ratio (IC50 standard / IC50 test)
same,relative binding ratio,[11],0.031 ratio (IC50 standard / IC50 test)
same,relative binding ratio,[12],0.0005 ratio (IC50 standard / IC50 test)
MVLESILRR [Her2/neu.889.V2],IC50,HLA-A*6801,22 nM
YLIMVKCWMV [Her2/neu.952L2V10],IC50,HLA-A*0206 [1],18 nM
same,IC50,HLA-A*6802 [2],84 nM
same,IC50,HLA-A*0201 [4],13 nM
same,IC50,HLA-A*0202 [5],56 nM
QGFFCPDPAPGAGGM [Her2/neu.1028],IC50,HLA-DRB1*0401,1960 nM
SLISAVVGV,IC50,HLA-A*0206 [1],20 nM
same,IC50,HLA-A*6802 [2],110 nM
same,IC50,HLA-A*0203 [3],16 nM
same,IC50,HLA-A*0201 [4],7.1 nM
same,IC50,HLA-A*0202 [5],10 nM
TAPLQPEQLQVFETL (also called Her2/neu.389) [HER2/neu DR supermotif exemplary 15-mer TAPLQPEQLQVFETL (position 389)],relative binding ratio,[19],0.0023 ratio (IC50 standard / IC50 test)
YRSLLEDDDMGDLVD [Her2/neu.1005],IC50,HLA-DRB1*0301 [20],4760 nM
KTFGSLAFV [Her2/neu.369T2V9],IC50,HLA-A*6802 [2],17 nM
same,IC50,HLA-A*0203 [3],1010 nM
same,IC50,HLA-A*0201 [4],35 nM
same,IC50,HLA-A*0202 [5],13 nM
"GTQRCEKCSK (also called Her2/neu.327 (10-mer)) [HER2/neu peptide, position 327, 10 amino acids]",relative binding ratio,[8],0.0012 ratio (IC50 standard / IC50 test)
same,relative binding ratio,[9],0.61 ratio (IC50 standard / IC50 test)
same,relative binding ratio,[10],0.014 ratio (IC50 standard / IC50 test)
same,relative binding ratio,[11],0.01 ratio (IC50 standard / IC50 test)
same,relative binding ratio,[12],0.021 ratio (IC50 standard / IC50 test)
"LSPGKNGVVK (Synthetic peptide; also called Her2/neu.1173 (10-mer)) [HER2/neu peptide, position 1173, 10 amino acids]",relative binding ratio (IC50 of standard peptide / IC50 of test peptide),HLA-A*0301 [7],-0.0002
KTFGSLAFV (analog of Her2/neu.369) [Her2/neu.369.T2V9],IC50,HLA-A*6802 [17],17 nM
same,IC50,HLA-A*0203 [14],1010 nM
same,IC50,HLA-A*0201 [15],35 nM
same,IC50,HLA-A*0202 [16],13 nM
RSLLEDDDMGDLVDA (also called Her2/neu.1006) [HER2/neu DR supermotif exemplary 15-mer RSLLEDDDMGDLVDA (position 1006)],relative binding ratio,[19],0.008 ratio (IC50 standard / IC50 test)
AT[Abu]RWGLLV [Her2/neu.5.T2B3V9 ATBRWGLLV],IC50,HLA-A*0206 [21],2180 nM
same,IC50,HLA-A*0201 [22],16700 nM
same,IC50,HLA-A*0202 [23],215 nM
same,IC50,HLA-A*6802 [24],1740 nM
AM[Abu]RWGLLV [Her2/neu.5M2B3V9 AMBRWGLLV],IC50,HLA-A*0206 [21],726 nM
same,IC50,HLA-A*0203 [25],16 nM
same,IC50,HLA-A*0201 [22],36 nM
same,IC50,HLA-A*0202 [23],473 nM
AV[Abu]RWGLLV [Her2/neu.5V2B3V9 AVBRWGLLV],IC50,HLA-A*0206 [21],2180 nM
same,IC50,HLA-A*0203 [25],141 nM
same,IC50,HLA-A*0201 [22],10000 nM
same,IC50,HLA-A*0202 [23],215 nM
same,IC50,HLA-A*6802 [24],4710 nM
DEAYVMAGVGSPYVS [Her2/neu.769],IC50,HLA-DRB1*0401,196 nM
same,IC50,HLA-DRB1*0101,100 nM
FVVIQNEDLGPASPL (also called Her2/neu.986) [HER2/neu peptide FVVIQNEDLGPASPL (position 986)],relative binding ratio,HLA-DR3 (DRB1*0301),-0.0025 ratio
DLTLGLEPSEEEAPR (also called Her2/neu.1058) [HER2/neu peptide DLTLGLEPSEEEAPR (position 1058)],relative binding ratio,HLA-DR3 (DRB1*0301),-0.0025 ratio
"CVNCSQFLR (also called Her2/neu.528) [HER2/neu peptide, position 528, 9 amino acids]",relative binding ratio,[8],0.58 ratio (IC50 standard / IC50 test)
same,relative binding ratio,[9],0.031 ratio (IC50 standard / IC50 test)
same,relative binding ratio,[10],0.53 ratio (IC50 standard / IC50 test)
same,relative binding ratio,[11],0.44 ratio (IC50 standard / IC50 test)
same,relative binding ratio,[12],0.0015 ratio (IC50 standard / IC50 test)
